Test results: the supplement of paper PMC10567573

B1: NCF4 (parent)
chain: FGPDSKSSALACTLPTLPAKVYVG
B2: NEK8 (parent)
chain: VVGTPCYISPELCEGKPYNQKSDI

Variants of: B1
Test: protein stability index of a GFP-peptide fusion (GPS, HEK-293T) (PSI 1-6); higher = more stable
Details: c terminus: a fixed tail appended
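Note: lentivirally expressed fusions sorted by FACS into six bins by GFP to DsRed ratio, PSI derived from sequencing read proportions per bin multiplied by bin number.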

Protein stability index of substitutions, site by site:
G24: I 1.74, M 1.63, K 2.88, F 2.92, H 2.08, Q 2.22, E 2.55, T 1.9, V 1.84, Y 1.75
P3: N 2.21, R 2.35, D 2.19, M 2.01, H 2.46, A 2.45, C 2.04, F 1.72, T 2.25, S 2.35
L14: K 2.55, H 2.19, A 2.68, C 1.77, V 2.11, G 2.66, F 2.25, D 2.84, S 2.86, R 2.32, Q 2.25
A9: D 3.18, S 2.23, K 1.89, M 1.9, V 2.25, G 1.67, L 1.11, E 3.67, P 1.57, Q 2.46
K6: E 2.54, Q 2.45, S 2.41, P 2.33, G 2.48, A 1.95, M 2.89
P15: S 1.95, C 2.19, K 1.86, N 1.85, E 2.29, Y 2.87, T 1.59, L 1.8, V 1.99, R 1.61, D 1.53, A 1.5, F 3.49, W 3.34
F1: L 2.99, D 3.56, G 3.58, N 3.69, C 2.67, A 3.11, T 3.47, Y 2.7, P 3.32, S 3.64, Q 3.02
V21: T 3.05, G 2.56, E 3.17, Y 2.1, K 3.09, F 2, S 2.61, M 1.8, W 2.63, R 3.29
P18: D 2.71, N 2.24, C 1.52, S 1.65, Y 2.42, I 3.81, R 1.61, F 2.02, M 1.75, K 2.15
T16: G 1.88, R 1.97, K 2.33, H 2.2, A 2, N 2.06, P 2.05, Q 2.2, L 1.73, F 2.38

Variants of: B2
Test: as above
Details: c terminus: a fixed tail appended

Protein stability index of substitutions, site by site:
S22: K 3.12, E 3.31, H 2.77, Q 2.85, Y 2.37, A 2.48, W 1.26, T 2.95, D 3.05, N 2.58, V 2.36, C 2.52, R 3.01, P 3.08, I 2.5, M 2.51, L 2.63, G 2.67, F 2.5
K21: Q 2.92, V 1.99, T 2.48, Y 2.2, W 2.65, S 3.01, R 2.26
I24: Y 3.08, S 3.56, H 3.18, Q 3.33, W 2.63, D 4.21, T 3.97, L 2.79, F 2.51, E 2.94, M 2.95, G 3.4, P 3.18, A 3.45, K 3.63, N 3.35, R 3.51, C 2.91, V 3.27
D23: H 2.94, W 1.25, F 2.04, E 2.47, V 2.02, R 2.29, Q 2.36, S 2.17, L 2.15, I 2.19, T 2.63, G 1.82, A 2.74, P 2.35, K 3.02, Y 2.44, N 2.56, C 2.93, M 2.18
